{
  "source": "the supplement of paper PMC11865577",
  "data": [
    {"system": "TO-N3 (biotin conjugate)", "assay": "pull-down binding Z-score (relative to library population); higher = stronger binding", "conditions": "RNA library: Library-2", "outline": "(§1)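 Heat-folded RNA library (1 μg, Cy5 or Cy3 end label, phosphate/NaCl/KCl buffer) was captured for 60 min at 25 °C on streptavidin beads displaying 100 pmol of biotin-conjugated small molecule, then washed three times. The bound fraction, eluted in hot SDS, was hybridised to a DNA barcode microarray at 55.5 °C for 20 h. Z-scores for binding were taken against the library mean and standard deviation after beads-only subtraction and trimmed averaging of replicate barcoded probes.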", "values": [
      {"sequence": "CAGACUGUCUUCCCAAAUAGCCUG [hsa-mir-4772]", "pull-down binding Z-score": -0.0312},
      {"sequence": "CAGAGAUGAAAUUGGGACUCCUCU [hsa-mir-7157]", "pull-down binding Z-score": 0.499},
      {"sequence": "CAGAGCUGCAGCUGCUCCACCCUG [hsa-mir-6730]", "pull-down binding Z-score": 1.12},
      {"sequence": "CAGAGGCAUCGGGUCAG [hsa-mir-4746]", "pull-down binding Z-score": 1.19},
      {"sequence": "CAGAGGCUGGCUUUCCAAAACUCUG [hsa-mir-1913]", "pull-down binding Z-score": 0.884},
      {"sequence": "CAGAGGGAGGCCAAGAAGACCUCUG [hsa-mir-4793]", "pull-down binding Z-score": -0.402},
      {"sequence": "CAGAGGGGCUGGCAGUACUGCUCUG [hsa-mir-4649]", "pull-down binding Z-score": 1.08},
      {"sequence": "CAGAGGUCCCACAGCAGGGCUGGAAAGCACACCUGUGGGACUUCUG [hsa-mir-3922]", "pull-down binding Z-score": 0.231},
      {"sequence": "CAGAGUGGGCUCACCUCUCGCCCACACUG [hsa-mir-6760]", "pull-down binding Z-score": -0.637},
      {"sequence": "CAGAGUGUGCAUGGCAGGCU [hsa-mir-7156]", "pull-down binding Z-score": 0.869},
      {"sequence": "CAGAGUUCCCUUCUUGUGAGCUCAG [hsa-mir-6733]", "pull-down binding Z-score": -0.415},
      {"sequence": "CAGAUACUUUUUAAAAUUUGUUUGAGUUGAGGCAGAUUAAAUAUCUG [hsa-mir-4742]", "pull-down binding Z-score": -0.82},
      {"sequence": "CAGCACUGAGCAGGCAGUGUUGU [hsa-mir-4288]", "pull-down binding Z-score": -0.149},
      {"sequence": "CAGCAGCAGCAGCAGCAGCAGCAGCAGCAGCAGCAGCAGCAGCAGCAG [r(CAG)16]", "pull-down binding Z-score": 1.6},
      {"sequence": "CAGCCAUGACCUGACCUUCUGUCUG [hsa-mir-4677]", "pull-down binding Z-score": -0.0686},
      {"sequence": "CAGCCCCGUGUGUUGAGGAAGGAAGG [hsa-mir-940]", "pull-down binding Z-score": 1.24},
      {"sequence": "CAGCCCGUGGUGGGG [hsa-mir-3619]", "pull-down binding Z-score": 0.752},
      {"sequence": "CAGCCCUGCACUGAAC [hsa-mir-614]", "pull-down binding Z-score": 0.941},
      {"sequence": "CAGCCUGGGGCAUCGGUUG [hsa-mir-5572]", "pull-down binding Z-score": 2.01}
    ]},
    {"system": "TO-3-N3-2 (biotin conjugate)", "assay": "pull-down binding Z-score (relative to library population); higher = stronger binding", "conditions": "RNA library: Library-2", "outline": "as §1", "values": [
      {"sequence": "AUUUGCCAUCACCUUUACCUUUAAUGGCAAAA [hsa-mir-548av]", "pull-down binding Z-score": -0.205},
      {"sequence": "AUUUUCACUUAAU [hsa-mir-302f]", "pull-down binding Z-score": -0.267},
      {"sequence": "CAAAACUCCGUACAUUGCUAUUUUGC [hsa-mir-3064]", "pull-down binding Z-score": 0.0575},
      {"sequence": "CAAACCGGACCUGAGCGUUUUG [hsa-mir-375]", "pull-down binding Z-score": 0.514},
      {"sequence": "CAAAGACCAGAACUUAAUGGUCUCUG [hsa-mir-4490]", "pull-down binding Z-score": -0.671},
      {"sequence": "CAAAUCGACUGUCCAAUGGAUUUG [hsa-mir-133a-2]", "pull-down binding Z-score": -0.146},
      {"sequence": "CAAAUCGCCUCUUCAAUGGAUUUG [hsa-mir-133a-1]", "pull-down binding Z-score": -0.209},
      {"sequence": "CAACAGUUCUGUAGCGCAAUUGUG [hsa-mir-203a]", "pull-down binding Z-score": 0.0351},
      {"sequence": "CAACUACUCAGGAGGCUG [hsa-mir-566]", "pull-down binding Z-score": -0.179},
      {"sequence": "CAAGAGGUGUGAGCCACACACACGCCUGGCCUCCUG [hsa-mir-5699]", "pull-down binding Z-score": 0.0475},
      {"sequence": "CAAGCACACAGGGCCUGGGACUAGCAUG [hsa-mir-4728]", "pull-down binding Z-score": 0.256},
      {"sequence": "CAAGGAAGAGUCACAGUCUCUUCCUUG [hsa-mir-659]", "pull-down binding Z-score": -0.285},
      {"sequence": "CAAGGGCUCUACUGUCCUUUCAGGAGAGCCCUUG [hsa-mir-4776-2]", "pull-down binding Z-score": -1.02},
      {"sequence": "CAAGGGCUCUCCUGAAAGGACAGUAGAGCCCUUG [hsa-mir-4776-1]", "pull-down binding Z-score": -0.0552},
      {"sequence": "CAAGUAAAAGGAAUUUUCAUUUUCCAGCCCCUAAUUG [hsa-mir-6739]", "pull-down binding Z-score": -0.399},
      {"sequence": "CAAGUCCGUCUUCCUGAGAGGUUUG [hsa-mir-133b]", "pull-down binding Z-score": -0.284},
      {"sequence": "CAAGUUAUCACUGAGCGACUUC [hsa-mir-4664]", "pull-down binding Z-score": -0.235},
      {"sequence": "CAAUAGUAAAAAGACAACCUGUUG [hsa-mir-3133]", "pull-down binding Z-score": 0.0706},
      {"sequence": "CAAUCACAUGUAAUUAGGUGUGAUUG [hsa-mir-510]", "pull-down binding Z-score": -0.773},
      {"sequence": "CAAUCAUGUAUAACUAAAUUUGAUUG [hsa-mir-514a-2_514a-3]", "pull-down binding Z-score": -0.513},
      {"sequence": "CAAUCAUGUAUAAUUAAAUUUGAUUG [hsa-mir-514a-1]", "pull-down binding Z-score": 0.0139},
      {"sequence": "CAAUCAUGUGUAAUUAGAUAUGAUUG [hsa-mir-514b]", "pull-down binding Z-score": -0.732},
      {"sequence": "CAAUGAAGACAUGAAGACCCAAUGUCUUCAUUG [hsa-mir-4529]", "pull-down binding Z-score": -0.347},
      {"sequence": "CAAUUUGAGACCAAU [hsa-mir-1285-2]", "pull-down binding Z-score": 0.444},
      {"sequence": "CACAAAUAUGGCUCUUUGUG [hsa-mir-4474]", "pull-down binding Z-score": -0.469},
      {"sequence": "CACAAGACUAGGCUUCCCUGUG [hsa-mir-3152]", "pull-down binding Z-score": 0.0303},
      {"sequence": "CACAAUAUUUAGGACAACAAUAUU [hsa-mir-1302-6]", "pull-down binding Z-score": 0.226},
      {"sequence": "CACACACAAUCACCAUGUG [hsa-mir-3118-1]", "pull-down binding Z-score": -0.386},
      {"sequence": "CACACACAAUCACCGUGUG [hsa-mir-3118-2_3118-3_3118-4]", "pull-down binding Z-score": -0.0846},
      {"sequence": "CACACAUACAUAUAUAUAUGUUUG [hsa-mir-3149]", "pull-down binding Z-score": 0.18},
      {"sequence": "CACACGCUUUAUUUGUGCCGUUUG [hsa-mir-758]", "pull-down binding Z-score": -0.318},
      {"sequence": "CACACUGGUGAGGUAACAGGAUCCGGUG [hsa-mir-182]", "pull-down binding Z-score": 0.0141},
      {"sequence": "CACAGAGUAAGCAUCAAUAGCAUUGGCAAGUUGAACUGAGCUGUC [hsa-mir-6895]", "pull-down binding Z-score": -0.0293},
      {"sequence": "CACAGUUCUGG [hsa-mir-761]", "pull-down binding Z-score": -0.473},
      {"sequence": "CACCAAAGGGUUAAGGGUUUGCUCUGGAG [hsa-mir-4653]", "pull-down binding Z-score": 0.0957},
      {"sequence": "CACCAGCCAGGCAUUGCUCAGCCCGUUUCCCUCUGGGGGAGCAAGGAGUGGUGCUGGGUUUGUC [hsa-mir-593]", "pull-down binding Z-score": -0.0489},
      {"sequence": "CACCUCCCGGCCCGGAGCUG [hsa-mir-4734]", "pull-down binding Z-score": -0.473},
      {"sequence": "CACGAGAUACCAGUGUGCACUUGUG [hsa-mir-542]", "pull-down binding Z-score": -0.425},
      {"sequence": "CACGAGAUUGGGUUGUGCAGAGGCUGACACUUG [hsa-mir-5004]", "pull-down binding Z-score": 0.0781},
      {"sequence": "CACGCAUUUGCUUUACUUGCAAUGAUUAUA [hsa-mir-300]", "pull-down binding Z-score": 0.215},
      {"sequence": "CACGCCGCGCCGCCGGGUCCCUCCUCCCCGGAGAGGCUG [hsa-mir-4674]", "pull-down binding Z-score": -0.048},
      {"sequence": "CACUAAUGUGAUUAAUGUUGUUGUG [hsa-mir-3657]", "pull-down binding Z-score": -0.0793},
      {"sequence": "CACUACAAGAAGAAUGUAGUUGUG [hsa-mir-19a]", "pull-down binding Z-score": 0.234},
      {"sequence": "CACUCAGGCAGUGCCAUGAGC [hsa-mir-6811]", "pull-down binding Z-score": -0.366},
      {"sequence": "CACUCAGUAAAUAUUUGUUGAGUG [hsa-mir-1271]", "pull-down binding Z-score": -0.186},
      {"sequence": "CACUCCCGGGAUCCCCAGGGAC [hsa-mir-3176]", "pull-down binding Z-score": -0.144},
      {"sequence": "CACUCCCGUGCUUGUCCGAGGAGGGAGG [hsa-mir-149]", "pull-down binding Z-score": 0.731},
      {"sequence": "CACUCUCCCUAAUGGGGCUGAAGACAGCUCAGGGGCAGGGUG [hsa-mir-4472-1]", "pull-down binding Z-score": -0.583},
      {"sequence": "CACUGAUUCAGUAAAAUACUCAGUG [hsa-mir-891a]", "pull-down binding Z-score": -0.845},
      {"sequence": "CACUGCAGUUACCCUCCCCUCGGCGUUACUGAGCACUG [hsa-mir-637]", "pull-down binding Z-score": 0.224},
      {"sequence": "CACUUUCUGCUCUCUGGUGAAAGUG [hsa-mir-371a]", "pull-down binding Z-score": -0.0736},
      {"sequence": "CAGACAAUAUAGCUGAGUUUGUCUG [hsa-mir-215]", "pull-down binding Z-score": -0.547},
      {"sequence": "CAGACCAUGCCACAUCCGUCUG [hsa-mir-7152]", "pull-down binding Z-score": -0.604},
      {"sequence": "CAGACGGCUUUCUCUCCGAAUGUCUG [hsa-mir-2276]", "pull-down binding Z-score": -0.376},
      {"sequence": "CAGACUCUG [hsa-mir-4326]", "pull-down binding Z-score": -0.381},
      {"sequence": "CAGACUGUCUUCCCAAAUAGCCUG [hsa-mir-4772]", "pull-down binding Z-score": -0.219},
      {"sequence": "CAGAGAUGAAAUUGGGACUCCUCU [hsa-mir-7157]", "pull-down binding Z-score": 0.343},
      {"sequence": "CAGAGCUGCAGCUGCUCCACCCUG [hsa-mir-6730]", "pull-down binding Z-score": 0.319},
      {"sequence": "CAGAGGCAUCGGGUCAG [hsa-mir-4746]", "pull-down binding Z-score": 0.516},
      {"sequence": "CAGAGGCUGGCUUUCCAAAACUCUG [hsa-mir-1913]", "pull-down binding Z-score": 0.266},
      {"sequence": "CAGAGGGAGGCCAAGAAGACCUCUG [hsa-mir-4793]", "pull-down binding Z-score": -0.445},
      {"sequence": "CAGAGGGGCUGGCAGUACUGCUCUG [hsa-mir-4649]", "pull-down binding Z-score": 0.258},
      {"sequence": "CAGAGGUCCCACAGCAGGGCUGGAAAGCACACCUGUGGGACUUCUG [hsa-mir-3922]", "pull-down binding Z-score": 0.0101},
      {"sequence": "CAGAGUGGGCUCACCUCUCGCCCACACUG [hsa-mir-6760]", "pull-down binding Z-score": -0.336},
      {"sequence": "CAGAGUGUGCAUGGCAGGCU [hsa-mir-7156]", "pull-down binding Z-score": 0.342},
      {"sequence": "CAGAGUUCCCUUCUUGUGAGCUCAG [hsa-mir-6733]", "pull-down binding Z-score": -0.714},
      {"sequence": "CAGAUACUUUUUAAAAUUUGUUUGAGUUGAGGCAGAUUAAAUAUCUG [hsa-mir-4742]", "pull-down binding Z-score": 0.104},
      {"sequence": "CAGCACUGAGCAGGCAGUGUUGU [hsa-mir-4288]", "pull-down binding Z-score": -0.325},
      {"sequence": "CAGCAGCAGCAGCAGCAGCAGCAGCAGCAGCAGCAGCAGCAGCAGCAG [r(CAG)16]", "pull-down binding Z-score": -0.0193},
      {"sequence": "CAGCCAUGACCUGACCUUCUGUCUG [hsa-mir-4677]", "pull-down binding Z-score": -0.165},
      {"sequence": "CAGCCCCGUGUGUUGAGGAAGGAAGG [hsa-mir-940]", "pull-down binding Z-score": 0.769},
      {"sequence": "CAGCCCGUGGUGGGG [hsa-mir-3619]", "pull-down binding Z-score": 0.115},
      {"sequence": "CAGCCCUGCACUGAAC [hsa-mir-614]", "pull-down binding Z-score": 0.00113},
      {"sequence": "CAGCCUGGGGCAUCGGUUG [hsa-mir-5572]", "pull-down binding Z-score": 1.31}
    ]}
  ]
}
